Experimental data: paper PMC8327961, “Nse5/6 inhibits the Smc5/6 ATPase and modulates DNA substrate binding” (The EMBO Journal, 2021)

How the values were obtained:
Smc5/6 core hexamer = biological target: T1, Smc5/6 core hexamer (Saccharomyces cerevisiae, UniProt Q08204+Q12749); assay: pyruvate kinase/lactate dehydrogenase coupled ATPase assay; assay type: biochemical; settings: Walker B mutation in both Smc5 and Smc6, residue numbers not told; ATPase buffer pH 7.5, 2 mM MgCl2; 25 °C
T1 construct: full-length Smc5, Smc6, Nse1, Nse2, Nse3, Nse4 co-expressed in E. coli Rosetta (DE3); C-terminal 3C-Twin-Strep-tag on Smc6; with Non-structural maintenance of chromosomes element 1; E3 SUMO-protein ligase MMS21; Non-structural maintenance of chromosome element 3; Non-structural maintenance of chromosome element 4
T1 sequence (Q08204 whole entry): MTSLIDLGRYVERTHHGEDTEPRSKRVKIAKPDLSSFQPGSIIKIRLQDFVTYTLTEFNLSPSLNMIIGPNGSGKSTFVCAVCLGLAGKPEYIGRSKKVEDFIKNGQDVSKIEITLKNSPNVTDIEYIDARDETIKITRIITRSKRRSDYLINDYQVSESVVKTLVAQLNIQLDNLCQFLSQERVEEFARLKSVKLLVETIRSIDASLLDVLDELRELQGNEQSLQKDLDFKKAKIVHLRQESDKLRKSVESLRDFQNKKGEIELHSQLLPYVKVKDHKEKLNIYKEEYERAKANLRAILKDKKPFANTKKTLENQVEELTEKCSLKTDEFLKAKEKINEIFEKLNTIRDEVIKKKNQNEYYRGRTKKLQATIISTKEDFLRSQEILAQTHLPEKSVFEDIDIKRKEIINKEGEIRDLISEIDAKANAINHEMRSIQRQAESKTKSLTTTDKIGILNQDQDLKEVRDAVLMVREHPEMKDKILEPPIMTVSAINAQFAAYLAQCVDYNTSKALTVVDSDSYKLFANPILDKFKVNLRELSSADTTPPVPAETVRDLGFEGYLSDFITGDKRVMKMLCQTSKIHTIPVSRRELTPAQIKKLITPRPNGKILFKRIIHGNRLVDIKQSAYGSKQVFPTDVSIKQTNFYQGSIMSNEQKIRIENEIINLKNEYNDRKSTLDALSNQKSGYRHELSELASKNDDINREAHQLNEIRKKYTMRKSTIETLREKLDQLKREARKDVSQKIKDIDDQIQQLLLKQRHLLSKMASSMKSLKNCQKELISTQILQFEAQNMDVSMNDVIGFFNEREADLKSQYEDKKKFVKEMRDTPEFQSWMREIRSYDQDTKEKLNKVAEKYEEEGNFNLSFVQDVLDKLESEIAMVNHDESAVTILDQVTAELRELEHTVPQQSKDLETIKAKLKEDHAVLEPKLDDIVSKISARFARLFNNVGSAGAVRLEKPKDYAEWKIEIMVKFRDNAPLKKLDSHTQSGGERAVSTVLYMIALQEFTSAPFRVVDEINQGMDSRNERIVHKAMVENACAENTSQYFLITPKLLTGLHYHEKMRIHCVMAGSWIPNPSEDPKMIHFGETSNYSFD
T1 sequence (Q12749 whole entry): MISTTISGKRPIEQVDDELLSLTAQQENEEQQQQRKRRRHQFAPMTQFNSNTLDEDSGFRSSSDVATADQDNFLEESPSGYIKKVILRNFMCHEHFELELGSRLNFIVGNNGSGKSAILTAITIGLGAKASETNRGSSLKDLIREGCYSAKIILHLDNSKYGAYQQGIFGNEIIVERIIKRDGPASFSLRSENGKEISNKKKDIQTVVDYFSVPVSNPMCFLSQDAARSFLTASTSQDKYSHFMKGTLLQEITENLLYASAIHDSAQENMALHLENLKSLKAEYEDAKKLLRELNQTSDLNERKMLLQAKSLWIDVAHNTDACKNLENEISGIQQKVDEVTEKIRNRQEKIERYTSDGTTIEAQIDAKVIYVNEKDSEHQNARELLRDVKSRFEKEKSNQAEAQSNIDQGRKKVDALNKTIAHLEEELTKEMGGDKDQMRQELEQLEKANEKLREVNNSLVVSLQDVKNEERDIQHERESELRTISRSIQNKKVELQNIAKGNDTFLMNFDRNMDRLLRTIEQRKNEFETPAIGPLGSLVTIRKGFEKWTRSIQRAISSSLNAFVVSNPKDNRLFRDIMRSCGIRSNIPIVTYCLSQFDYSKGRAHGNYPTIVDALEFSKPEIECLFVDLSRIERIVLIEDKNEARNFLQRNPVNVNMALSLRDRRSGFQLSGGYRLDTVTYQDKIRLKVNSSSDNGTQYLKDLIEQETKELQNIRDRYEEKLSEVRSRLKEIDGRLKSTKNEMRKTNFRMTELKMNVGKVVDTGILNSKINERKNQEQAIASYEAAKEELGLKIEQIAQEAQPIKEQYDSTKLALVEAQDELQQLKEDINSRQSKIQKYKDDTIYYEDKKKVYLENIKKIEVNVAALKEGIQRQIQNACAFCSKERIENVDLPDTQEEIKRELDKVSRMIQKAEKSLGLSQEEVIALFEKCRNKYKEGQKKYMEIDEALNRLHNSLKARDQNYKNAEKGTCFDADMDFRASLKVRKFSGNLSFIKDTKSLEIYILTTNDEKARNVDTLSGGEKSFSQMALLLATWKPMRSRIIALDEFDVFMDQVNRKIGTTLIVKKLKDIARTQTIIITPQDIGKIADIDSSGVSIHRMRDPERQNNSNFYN
T1 sequence (Q07913 whole entry partner): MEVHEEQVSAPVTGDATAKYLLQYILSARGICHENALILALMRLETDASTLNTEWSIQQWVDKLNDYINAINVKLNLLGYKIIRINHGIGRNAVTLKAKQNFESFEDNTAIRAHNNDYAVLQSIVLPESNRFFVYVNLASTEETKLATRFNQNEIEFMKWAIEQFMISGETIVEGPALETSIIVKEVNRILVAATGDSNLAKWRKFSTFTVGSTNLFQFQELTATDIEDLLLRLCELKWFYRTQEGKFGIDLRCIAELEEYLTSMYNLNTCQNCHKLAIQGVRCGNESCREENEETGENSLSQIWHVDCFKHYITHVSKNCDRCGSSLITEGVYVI
T1 sequence (P38632 whole entry partner): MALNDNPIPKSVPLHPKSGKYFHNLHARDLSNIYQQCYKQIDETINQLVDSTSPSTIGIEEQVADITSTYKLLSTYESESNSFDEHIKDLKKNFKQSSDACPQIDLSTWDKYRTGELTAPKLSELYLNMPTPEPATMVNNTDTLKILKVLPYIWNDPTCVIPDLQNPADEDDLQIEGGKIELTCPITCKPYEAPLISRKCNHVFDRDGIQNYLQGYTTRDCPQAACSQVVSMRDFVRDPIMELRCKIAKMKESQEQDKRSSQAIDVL
T1 sequence (Q05541 whole entry partner): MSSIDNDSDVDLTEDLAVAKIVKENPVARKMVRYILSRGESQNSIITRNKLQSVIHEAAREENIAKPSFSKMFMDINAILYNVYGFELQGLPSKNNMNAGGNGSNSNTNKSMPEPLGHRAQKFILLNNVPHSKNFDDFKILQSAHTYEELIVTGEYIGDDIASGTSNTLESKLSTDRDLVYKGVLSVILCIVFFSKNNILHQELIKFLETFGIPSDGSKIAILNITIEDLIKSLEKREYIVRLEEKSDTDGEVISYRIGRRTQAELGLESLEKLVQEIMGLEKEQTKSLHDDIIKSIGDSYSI
T1 sequence (P43124 whole entry partner): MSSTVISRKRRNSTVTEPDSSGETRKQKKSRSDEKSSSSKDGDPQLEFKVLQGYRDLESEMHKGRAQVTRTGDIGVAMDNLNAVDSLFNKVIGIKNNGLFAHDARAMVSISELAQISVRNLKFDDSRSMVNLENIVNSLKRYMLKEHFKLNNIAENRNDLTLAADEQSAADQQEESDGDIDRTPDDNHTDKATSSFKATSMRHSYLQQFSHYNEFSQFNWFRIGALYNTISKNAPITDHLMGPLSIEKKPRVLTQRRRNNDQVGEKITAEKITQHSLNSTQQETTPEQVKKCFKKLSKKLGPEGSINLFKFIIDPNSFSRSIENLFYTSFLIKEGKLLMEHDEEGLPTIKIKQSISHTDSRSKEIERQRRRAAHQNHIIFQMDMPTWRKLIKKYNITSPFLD

[1] = biological target: Smc5/6 octamer (hexamer plus Nse5/6) (Saccharomyces cerevisiae, UniProt Q08204;Q12749;Q07913;P38632;Q05541;P43124;Q03718;P40026 …); assay: fluorescence anisotropy; ATPase buffer: 10 mM Hepes-KOH pH 7.5, 150 mM K-OAc, 2 mM MgCl2, 20% glycerol; anisotropy at 25 C; plasmid pulldown bound at room temperature, high-salt buffer; settings: protein: recombinant; tags: C-terminal 3C-Twin-Strep on Smc6; reconstitution with Nse5 C-terminal AviTag-3C-Twin-Strep; copies: 1;1;1;1;1;1;1;1; blunt
[2] = biological target: Smc5/6 hexamer (Smc5, Smc6, Nse1, Nse2, Nse3, Nse4) (Saccharomyces cerevisiae, UniProt Q08204;Q12749;Q07913;P38632;Q05541;P43124 1-1093;1-1114;1-336;1-267;1-303;1-402); assay: as above; settings: protein: recombinant; tags: C-terminal 3C-Twin-Strep on Smc6; copies: 1;1;1;1;1;1; blunt
Nse5/6 dimer = biological target: T2, Nse5/6 dimer (Saccharomyces cerevisiae, UniProt Q03718;P40026 1-556;1-464); assay: as above; settings: protein: recombinant; copies: 1;1; blunt
T2 sequence 1: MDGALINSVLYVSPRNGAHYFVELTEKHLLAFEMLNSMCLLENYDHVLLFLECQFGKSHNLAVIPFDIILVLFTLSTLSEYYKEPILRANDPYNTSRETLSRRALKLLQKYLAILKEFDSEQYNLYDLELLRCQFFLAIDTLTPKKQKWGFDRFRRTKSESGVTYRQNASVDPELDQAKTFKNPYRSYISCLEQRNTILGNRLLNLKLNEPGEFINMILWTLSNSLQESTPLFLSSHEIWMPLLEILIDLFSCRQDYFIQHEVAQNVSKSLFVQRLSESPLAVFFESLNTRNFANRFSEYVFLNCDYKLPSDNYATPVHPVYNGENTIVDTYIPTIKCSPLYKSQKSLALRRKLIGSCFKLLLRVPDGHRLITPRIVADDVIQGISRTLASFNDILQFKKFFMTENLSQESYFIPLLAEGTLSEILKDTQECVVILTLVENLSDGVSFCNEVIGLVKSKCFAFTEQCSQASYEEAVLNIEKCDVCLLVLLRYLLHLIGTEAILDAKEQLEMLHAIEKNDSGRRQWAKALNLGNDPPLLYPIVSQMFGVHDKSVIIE
T2 sequence 2: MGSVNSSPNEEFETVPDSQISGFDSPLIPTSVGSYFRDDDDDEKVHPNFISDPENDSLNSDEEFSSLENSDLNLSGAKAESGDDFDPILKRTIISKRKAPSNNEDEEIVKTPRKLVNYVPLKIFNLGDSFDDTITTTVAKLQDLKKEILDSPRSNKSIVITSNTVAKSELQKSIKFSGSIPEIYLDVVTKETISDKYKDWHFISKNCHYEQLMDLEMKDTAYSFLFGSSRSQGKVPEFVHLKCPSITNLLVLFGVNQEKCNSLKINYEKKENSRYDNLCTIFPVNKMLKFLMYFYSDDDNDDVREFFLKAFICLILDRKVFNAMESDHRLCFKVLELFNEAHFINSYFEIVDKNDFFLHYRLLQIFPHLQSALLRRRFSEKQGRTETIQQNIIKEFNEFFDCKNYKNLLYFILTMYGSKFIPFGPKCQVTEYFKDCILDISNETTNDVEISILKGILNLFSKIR

Molecule: Nc1ncnc2c1ncn2[C@@H]1O[C@H](COP(=O)(O)OP(=O)(O)OP(=O)(O)O)[C@@H](O)[C@H]1O [ATP]
- no noticeable ATP hydrolysis (Smc5/6 core hexamer): did not display noticeable ATP hydrolysis activity

B1: 40bpDNA (STI699/STI700) (dsDNA)
DNA 1: TTAGTTGTTCGTAGTGCTCGTCTGGCTCTGGATTACCCGC
DNA 2: GCGGGTAATCCAGAGCCAGACGAGCACTACGAACAACTAA
- Kd [1]: ~100 nM
- Kd [2]: ~150 nM
- binding result (Nse5/6 dimer): no binding
